Like-named read-outs stand apart in the source and are kept apart here.
T1: human NKG2D expressed on cells (human, UniProt P26718 1-216)
T1 construct: whole, on cells; also called hNKG2D; EL4-hNKG2D
T1 sequence (looked up): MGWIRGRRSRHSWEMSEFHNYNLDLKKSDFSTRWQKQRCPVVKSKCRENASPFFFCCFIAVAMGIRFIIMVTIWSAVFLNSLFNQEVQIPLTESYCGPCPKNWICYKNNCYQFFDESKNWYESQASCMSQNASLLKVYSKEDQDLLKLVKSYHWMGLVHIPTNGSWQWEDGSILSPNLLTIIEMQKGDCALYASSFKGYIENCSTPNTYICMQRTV

B1: ADI-11815 Fab (Fab, V domains shown)
VH: QVQLVQSGAEVKKPGASVKVSCKASGYTFGTYYMHWVRQAPGQGLEWMGIINPSRGSTVYAQKFQGRVTMTRDTSTSTVYMELSSLRSEDTAVYYCARGAGYDDEDMDVWGKGTTVTVSS
VL: DIQMTQSPSSVSASVGDRVTITCRASQGIDSWLAWYQQKPGKAPKLLIYAASSLQSGVPSRFSGSGSGTDFTLTISSLQPEDFATYYCQQAHSYPLTFGGGTKVEIK
notes: Fab fragment; also called Ab7
B2: ADI-11801 Fab (Fab, V domains shown)
VH: QVQLVQSGAEVKKPGASVKVSCKASGYTFSDYYMHWVRQAPGQGLEWMGMINPSWGSTSYAQKFQGRVTMTRDTSTSTVYMELSSLRSEDTAVYYCAREAADGFVGERYFDLWGRGTLVTVSS
VL: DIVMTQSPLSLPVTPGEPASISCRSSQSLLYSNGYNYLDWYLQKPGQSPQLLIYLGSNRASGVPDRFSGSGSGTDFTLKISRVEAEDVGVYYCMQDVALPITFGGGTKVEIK
notes: Fab fragment; also called Ab4
B3: A49-F3′-TriNKET-I07 (bispecific antibody, human IgG1, kappa)
chain: DIQMTQSPSTLSASVGDRVTITCRASQSISSWLAWYQQKPGKAPKLLIYEASSLESGVPSRFSGSGSGTEFTLTISSLQPDDFATYYCQQSQSYPPITFGCGTKVEIKGGGGSGGGGSGGGGSGGGGSEVQLVESGGGLVQPGGSLRLSCAASGFTFGSYWMSWVRQAPGKCLEWVATIKQDGSEKSYVDSVKGRFTISRDNAKNSLYLQMNSLRAEDTAVYYCARPLNAGELDVWGQGTMVTVSSASDKTHTCPPCPAPELLGGPSVFLFPPKPKDTLMISRTPEVTCVVVDVSHEDPEVKFNWYVDGVEVHNAKTKPREEQYNSTYRVVSVLTVLHQDWLNGKEYKCKVSNKALPAPIEKTISKAKGQPREPRVYTLPPCRDELTKNQVSLTCLVKGFYPSDIAVEWESNGQPENNYKTTPPVLVSDGSFTLYSKLTVDKSRWQQGNVFSCSVMHEALHNHYTQKSLSLSPG
heavy: EVQLVESGGGLVKPGGSLRLSCAASGFTFSSYSMNWVRQAPGKGLEWVSSISSSSSYIYYADSVKGRFTISRDNAKNSLYLQMNSLRAEDTAVYYCARGAPMGAAAGWFDPWGQGTLVTVSSASTKGPSVFPLAPSSKSTSGGTAALGCLVKDYFPEPVTVSWNSGALTSGVHTFPAVLQSSGLYSLSSVVTVPSSSLGTQTYICNVNHKPSNTKVDKKVEPKSCDKTHTCPPCPAPELLGGPSVFLFPPKPKDTLMISRTPEVTCVVVDVSHEDPEVKFNWYVDGVEVHNAKTKPREEQYNSTYRVVSVLTVLHQDWLNGKEYKCKVSNKALPAPIEKTISKAKGQPREPQVCTLPPSRDELTENQVSLTCLVKGFYPSDIAVEWESNGQPENNYKTTPPVLDSDGSFFLYSWLTVDKSRWQQGNVFSCSVMHEALHNHYTQKSLSLSPG
light: DIQMTQSPSSVSASVGDRVTITCRASQGISSWLAWYQQKPGKAPKLLIYAASSLQSGVPSRFSGSGSGTDFTLTISSLQPEDFATYYCQQGVSFPRTFGGGTKVEIKRTVAAPSVFIFPPSDEQLKSGTASVVCLLNNFYPREAKVQWKVDNALQSGNSQESVTEQDSKDSTYSLSSTLTLSKADYEKHKVYACEVTHQGLSSPVTKSFNRGEC
notes: trispecific: I07 scFv-Fc (CD33), A49 VH-CH1-Fc and A49 VL-CL (NKG2D Fab), heterodimeric IgG1 Fc (CD16); also called TriNKET derivative of I07 mAb
B4: I07-F405L mAb (antibody, human IgG1, kappa, V domains shown)
VH: EVQLVESGGGLVQPGGSLRLSCAASGFTFGSYWMSWVRQAPGKGLEWVATIKQDGSEKSYVDSVKGRFTISRDNAKNSLYLQMNSLRAEDTAVYYCARPLNAGELDVWGQGTMVTVSS
VL: DIQMTQSPSTLSASVGDRVTITCRASQSISSWLAWYQQKPGKAPKLLIYEASSLESGVPSRFSGSGSGTEFTLTISSLQPDDFATYYCQQSQSYPPITFGGGTKVEIKR
notes: Fc variant of I07 with F405L (EU); a Lys may optionally stand at the C-terminus of the heavy chain

How the values were obtained:
[1] = target: T2, human CD33 extracellular domain (human, UniProt P20138 18-259); test: SPR, Fab captured, 37C
T2 construct: soluble monomeric ECD; also called human CD33 ECD; hCD33
Protocol: (§1) Kinetics and affinity of a series of Fab fragments of anti-CD33 antibodies with different CD33 variants (human CD33 ECD, cyno CD33 ECD, V-domain of human CD33, C-domain or human CD33 and selected CD33 SNPs) were assessed by surface plasmon resonance using Biacore 8K instrument (GE Healthcare). Anti-Fab antibody was immobilized on a CMS chip using standard amine coupling chemistry. CD33 FABs were captured on the anti-Fab chip at a density of ˜100 RU. Solutions containing different concentrations of soluble monomeric CD33 or its domains were injected over the captured FABs and control surfaces at 30 μl/min at 37° C. Surfaces were regenerated between cycles by quick injection of 10 mM glycine, pH 1.8. To obtain kinetic rate constants double-referenced data were fit to a 1:1 interaction model using Biacore 8K Evaluation software (GE Healthcare). The equilibrium binding constant KD was determined by the ratio of binding rate constants kd/kₐ.
(§2) Affinity of 29 Fab fragments binding to human and cyno CD33 ECD were assayed by Biacore analysis.

[2] = target: T3, cyno CD33 extracellular domain (Cynomolgus/Rhesus (cyno)); test: SPR, Fab captured, 37C;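 also: surface plasmon resonance with Fabs captured on anti-Fab surface, soluble monomeric CD33 as analyte at several concentrations, double-referenced 1:1 model fit, KD as koff/kon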
T3 construct: soluble monomeric ECD; also called cyno CD33 ECD
Protocol: as §1, §2

[3] = target: T2, human CD33 extracellular domain; test: SPR, Fab captured, 37C; remark: listed apart in the source
V domain of human CD33 [4] = target: T4, V domain of human CD33 (human, UniProt P20138 18-139, limits assumed); test: SPR, Fab captured, 37C
T4 construct: recombinant, fully glycosylated V domain; also called Human CD33 V domain

[5] = target: T2, human CD33 extracellular domain; test: SPR, Fab captured, 37C; remark: listed apart in the source
[6] = target: T2, human CD33 extracellular domain; test: SPR, Fab captured, 37C; remark: listed apart in the source
Protocol: as §1

C domain of human CD33 [7] = target: T5, C domain of human CD33 (human, UniProt P20138 140-259, limits assumed); test: SPR, Fab captured, 37C
T5 construct: recombinant C domain
Protocol: as §1

V domain of human CD33 [8] = target: T4, V domain of human CD33; test: SPR, Fab captured, 37C; remark: listed apart in the source
Protocol: as §1
(§3) The ability of anti-CD33 antibodies to recognize glycosylated CD33 was assayed. […] De-glycosylation status was confirmed by a shift on SDS-PAGE and MS.

[9] = target: T6, deglycosylated V domain of human CD33 (human, UniProt P20138 18-139, limits assumed, N-glycans removed by PNGase); test: SPR, Fab captured, 37C
T6 construct: V domain deglycosylated by PNGase before testing; also called deglycosylated V CD33
Protocol: as §1, §3

[10] = target: T2, human CD33 extracellular domain; test: SPR, Fab captured, 37C; remark: listed apart in the source
Protocol: as §1

V domain of human CD33 [11] = target: T4, V domain of human CD33; test: SPR, Fab captured, 37C; remark: listed apart in the source
Protocol: as §1

C domain of human CD33 [12] = target: T5, C domain of human CD33; test: SPR, Fab captured, 37C; remark: listed apart in the source
Protocol: as §1

[13] = target: T7, human CD33 expressed on cells (human, UniProt P20138 18-364); test: flow cytometry on Mv4-11 cells, fluorophore-conjugated anti-human IgG secondary antibody, MFI as fold over background (FOB)
T7 construct: endogenous CD33 of human AML cell lines and blood monocytes; also called cell-expressed CD33 (Molm-13, Mv4-11, monocytes)
Protocol: (§4) The cells were analyzed by flow cytometry, and fold over background values were calculated by normalizing binding MFI to the MFI of a control group in which the cells were incubated with the secondary antibody only.

[14] = target: T7, human CD33 expressed on cells; test: flow cytometry on Molm-13 cells, fluorophore-conjugated anti-human IgG secondary antibody, MFI as fold over background (FOB)
Protocol: as §4

[15] = target: T1, human NKG2D expressed on cells; test: flow cytometry on EL4-hNKG2D cells
Protocol: EL4-hNKG2D cells were incubated with the diluted TriNKET or mAb solutions. Binding of the TriNKET or mAb to the EL4 cells was detected using a fluorophore-conjugated anti-human IgG secondary antibody. The cells were analyzed by flow cytometry, and fold over background values were calculated by normalizing binding MFI to the MFI of a control group in which the cells were incubated with the secondary antibody only.

Binder	Kd [1]	koff [1]	kon [1]	binding result [2]	Kd [3]	koff [3]	kon [3]	Kd [5]	koff [5]	kon [5]	EC50 (read off the curve) [13]	EC50 (read off the curve) [14]	further results
B1	0.23 nM	7.91e-05 s⁻¹	339000 M⁻¹ s⁻¹	no binding (tested: 100 nM)	0.23 nM	7.91e-05 s⁻¹	339000 M⁻¹ s⁻¹	0.23 nM	7.91e-05 s⁻¹	339000 M⁻¹ s⁻¹	–	–	binding result (V domain of human CD33 [4]): no binding; Kd [6]: 0.23 nM; koff [6]: 7.91e-05 s⁻¹; kon [6]: 339000 M⁻¹ s⁻¹; binding result (C domain of human CD33 [7]): no binding
B2	0.55 nM	0.000417 s⁻¹	756000 M⁻¹ s⁻¹	no binding (tested: 100 nM)	0.55 nM	0.000417 s⁻¹	756000 M⁻¹ s⁻¹	0.55 nM	0.000417 s⁻¹	756000 M⁻¹ s⁻¹	–	–	Kd (V domain of human CD33 [4]): 0.69 nM; koff (V domain of human CD33 [4]): 0.00125 s⁻¹; kon (V domain of human CD33 [4]): 1.8e+06 M⁻¹ s⁻¹; Kd (V domain of human CD33 [8]): 0.69 nM; koff (V domain of human CD33 [8]): 0.00125 s⁻¹; kon (V domain of human CD33 [8]): 1.8e+06 M⁻¹ s⁻¹; Kd [9]: 0.55 nM; koff [9]: 0.00115 s⁻¹; kon [9]: 2.1e+06 M⁻¹ s⁻¹; Kd [10]: 0.55 nM; koff [10]: 0.000417 s⁻¹; kon [10]: 756000 M⁻¹ s⁻¹; Kd (V domain of human CD33 [11]): 0.69 nM; koff (V domain of human CD33 [11]): 0.00125 s⁻¹; kon (V domain of human CD33 [11]): 1.8e+06 M⁻¹ s⁻¹; binding result (C domain of human CD33 [12]): no binding
B3	–	–	–	–	–	–	–	–	–	–	~2 µg/mL	~5 µg/mL	–
B4	–	–	–	–	–	–	–	–	–	–	~0.3 µg/mL	~2 µg/mL	binding result [15]: no binding
